Laboratory results as given in patent US20230374088A1.

Biological target: T1, Gli2-ZF-SNAP (human), P10070
T1 chain: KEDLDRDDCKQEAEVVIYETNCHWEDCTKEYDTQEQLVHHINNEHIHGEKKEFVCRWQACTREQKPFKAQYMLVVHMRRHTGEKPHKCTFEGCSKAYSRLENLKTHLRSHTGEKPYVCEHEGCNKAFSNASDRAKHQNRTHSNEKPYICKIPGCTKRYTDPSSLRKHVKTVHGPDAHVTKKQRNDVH
Experiment: TIRF microscopy; 100 nM Gli2-ZF-SNAP-Alexa647 with 100 nM kinesin on microtubules
Conditions: remark: other sources report otherwise

B1: Kif7-MM (monomeric Kif7 motor domain, 1-386aa), Q2M1P5 1-386 (protein)
chain: MGLEAQRLPGAEEAPVRVALRVRPLLPKELLHGHQSCLQVEPGLGRVTLGRDRHFGFHVVLAEDAGQEAVYQACVQPLLEAFFEGFNATVFAYGQTGSGKTYTMGEASVASLLEDEQGIVPRAMAEAFKLIDENDLLDCLVHVSYLEVYKEEFRDLLEVGTASRDIQLREDERGNVVLCGVKEVDVEGLDEVLSLLEMGNAARHTGATHLNHLSSRSHTVFTVTLEQRGRAPSRLPRPAPGQLLVSKFHFVDLAGSERVLKTGSTGERLKESIQINSSLLALGNVISALGDPQRRGSHIPYRDSKITRILKDSLGGNAKTVMIACVSPSSSDFDETLNTLNYASRAQNIRNRATVNWRPEAERPPEETASGARGPPRHRSETRIIH
modifications: here or on the partner: Alexa 647 dye on the SNAP tag in the TIRF assays
- fold Gli2-ZF Alexa-647 intensity on microtubules over Gli alone: 3 fold
